Data published in patent US20250241939A1, “NUCLEIC ACID-BASED DELIVERY SYSTEMS AND USES THEREOF” (Kodikaz Therapeutic Solutions, Inc., priority 2022, published 2025).

B1: 13 (nucleic acid, listed as Homo sapiens)
chain: TATCGAAAATTCACCCCCGATATTCACGTAGGTTCTTTTCTATTTTCCCTAAGCGTCGGCAGGTTTGAGAAATAAAGGGACAGAGTACAAAAGAGAGAAATTTTAAAGCTGGGCGTCCGGGGGAGACATCACATGTTGGTAGGTTCCATGATGCCCCACAAGCCGTAAAAACCAGCAAGTTTTTATTAGTGATTTTCAAAAGGGGAGGGAGTGTACGAATAGGTGTGGGTCACAGAGATCACGTGCTTCACAAGGTAATAGAATATCACAAGGCAAATGGAGGCAGGGCGAGATCACAGGACCACAGGACCGGGGTGAAATTAAAATTGCTAATGAAGTTTTGGGCACCATTGTCATTGATAACATCTTATCAGGAGACAGGGTTTGAGAGACAACCGGTCTGACCAAAATTTATTAGGTGGGAATTTCCTCGTCCTAATAAGCCTGGGAGTGCTATGGGAGACTGGGGCTTATTTCATCCCGTAGAGGCAACCATAAAAGACAGGCCCAAGCGGCCATTTAGAGCCTCCCAGGACATTCTCTTTCTCAGGGTGTTCCTTGCTGAGAAAAAGAATTCAGATATTTCTCCATTTGCTTTTGAAAGAAGAGAAATATGGCTCTGTTCCCGGCTCACGGCGCAGATTTAAGGTTATCTCCTTTTCCCTGAACAATTGCTGTTATCCTGTTCTTTTTTCAAGGTGCCCAGATTTCATATTGTTCAAACACACATGCTTACAATTTGTGCAGTTAAGCAATATCACAGGGTCCTGAGGGACATACATCCTCCTCAGCTGACAGGATTAAGAGATTAAAGTAAAGACAGGCATAGGAAATCACAAGGGTATTGATTGGGGAAGTGATAAGTGTCCATGAAATCTTCACAATTTATGTTTAGAGATTGCAGTAAAGACAGGCATAAGAAATTATAAAAGTATTAATTTGGGGAACTAATAAATGTCCATGAAATCTTCACAATCCACGTTCTTCTGCCATGGCTTCAGCCGGTCCCTCCGTTCGGGGTCCCTGACTTCCCGCAACA
B2: 20 (nucleic acid, listed as Homo sapiens)
chain: TTCTTCTCACGGAGTGAAACTTTTCCTTTGATTGAGCAGTTTCGAAACTCTCTTTTTGTAAAATCTGCAAGTGAACATTTGGAGTGCTTTGTGGCCTATGATAGAAAAGGAAATATTTTCACTTAAAATCTAGACAGAAGCAATCTGAGAAACTTCTTTGTGATGTTTGTATTCATCTTACATAGTTAAACCTTTCTTTTGATTGAGCAGTTTTGAAACTCTCTTTTTGTCGAATCTGTAAGAGGACATTTGGAGTGCTTTCAGGCCTATGGTGAAAAAGGAAGTATCTTCTCATGAAAACTAGACAGAAGAATTCAGACAAACTTCTTTGTGATGTGTGCATTTATCTCACAGACTTGAACCTTTCTTTTGATTGAGCAGTTTGAAACACTCTTTTTGTAGAATCTGCAAGTGGACATTTGGAGCACGTGGAGGCCTATAGTGGAAATGGAAATGTCTTCACACTAAAAACTAGACAGAAGAATTCTGAGAAACTTCTTTGTGATCTTTGCATTCATCTCACAGAGTTGAACCTTTCTTTTCATTGAGCAGTTTGAAAACACTCTTTTTGTAGAATCGGCAAGTGGACATTTGGAACGCATTGCAGACTATGATGGAAAAGGAAATATCTCCA
B3: 22 (nucleic acid, listed as Homo sapiens)
chain: CAGCGCAAGTAATATATCCTGGAATTGGAAGCAGAATGGGAACTATGGACTCAGTGAAGATTGTTCTGGACATTATTTGATTCTTCTTTCTCGCTGCCAATTGGATACTTTTTTTTTTTTTTGAGACAGAGTCT
B4: MLT1J2 (nucleic acid, listed as Homo sapiens)
DNA: TGTGTTAGTCAGGATAGGCTAACCTCTGTAACACACAACCCCAATTTTTCAGTGGCTCAGAACAATAGGAGTTTCTTTCTTACTCATGTAAAGTCCAGGTGTGGCAGAAACTTGCGGGGGAGAAAGTCTACTCCACAGCATCACTCAGGGACCCAGGCTCCTGCCTTACGGTGGTTCCGCCATTTTCCAGGGCCTCGGAGTCCTCCATCCCATCTCCTCCATTCAGCTGGTGGATGTGGGAGGAGAGCGTGTATGAAAGACCACACAGAAGCTTTTTTTGGGCCAGGCTTTGAGACGGCGCACATCAGTTTCGCTCTTGTTGCCCAGGCTGGAGTGCAATGGCGCAATCTCGGCTCACCGCAAAAGACACTGGGAAATTTGGTCTGGCCATGTGTCTAGGAAGCAGAGGAGATGGGGTTTCATAAACTCCTGAACTCTCTCTACCACG
B5: 4 (nucleic acid, listed as Homo sapiens)
chain: TGATATGGTTTGGCTGTGTCCCCACCTAAATCTCATCTTGAATTGTAGTTCCCATAATCCCCATGTGTCATGGGAGGGACCCAGTGGGAGGTAATTTAATCCTGGGGGCAGTTACCCTCCTGCTATGTGTGTGTGTGTGTGTGTGTTCTCACGAGATCTGATGGTTTTATAAGGGGCTTTTCCCCCTTCGCTCGGCACTTCTCCTTCCTGCCGCCATGTGAAGAAGGACGTGTTTGCTTCCCCTTCCGCCATGATTGTAAGTTTCCTGAGGCCTCCCCAGCCATGCNGAACTGTGAGTCAATTAAACCTCTTTCCTTTATAAATTACCCAGTCTCGGGTGTGTCTTTATTAGCAGCGTGAGAACGGACTAATACA
modifications: misc_difference 287 a, c, t, g, unknown or other
B6: 21 (nucleic acid, listed as Homo sapiens)
chain: CAGCGCAAGTAATATATCCTGGAATTGGAAGCAGAATGGGAACTATGGACTCAGTGAAGATTGTTCTGGACATTATTTGATTCTTCTTTCTCGCTGCCAATTGGATACTTTTTTTTTTTTTTTGAGACAGAGTCT

Key:
[1] = test system: MM1s (multiple myeloma) cell genome; assay: ctDNA coculture with MM1s cells, whole genome sequencing: genomic insertion sites, transposons at insertion points and SNVs (multiple myeloma); assay type: cell-based, human; conditions: for Gene: gene at identified genomic insertion site; for Gene / Location / No. SNP / Chr position: multiple myeloma; for Location / Chr position: identified genomic insertion site; for Location: chromosome; for No. SNP: number of single nucleotide variants (SNVs or SNPs) identified
Method: (§1) The integration of ctDNAs into the host cell genome was evaluated. ctDNA was extracted from patient plasma, cultured for 24 hours with cells of a matching cancer cell type or non-matching cancer cell type, and whole genome sequencing was performed. The cell lines used were MM1s (multiple myeloma, MM) and MIA (pancreatic cancer, PC).
Single nucleotide variants (SNVs) unique to the ctDNA that were found in the host cell genome under matching coculture conditions were identified.
The sequence data was used to reconstruct genomic contigs for each experimental condition by de novo assembly. […] Coculture contigs carrying a ctDNA insertion were identified using NucDiff analysis. BLAST alignment analysis further validated the gain of ctDNA fragments in coculture conditions and identified the transition points of ctDNA insertion (FIGS. 3A-3C). […] The remaining 20% inserted into a chromosomal location distinct from their site of origin.
(§2) Experiments were designed to identify the presence of transposons in ctDNA fragments. To map ctDNA genomic junctions more precisely, a PACBIO probe was ligated to multiple myeloma and pancreatic cancer ctDNA samples to label their 5′ and 3′ ends. Whole-genome sequencing of DNA from cells with ctDNA genomic integration was done using the Illumina platform. De novo assembly was performed on the sequencing output. ctDNA contigs containing PACBIO adaptor were then matched to those contigs containing inserted ctDNA sequences identified in the coculture experiments. Transposable element on ctDNA sequences at the insertion points (<100 nucleotides from transition point between cell and ctDNA) were detected and classified using RepeatMaster.
(§3) A search was conducted for transposons that preferentially target cells of matching tumor types. The lists of transposons identified at the ctDNA insertion point in matching and mismatched coculture conditions were compared (e.g., MM ctDNA with MM cells or PC cells). Transposons were selected that were uniquely or preferentially inserted in the matching conditions.
In multiple myeloma, AluSp, MER11, MER11C, AluJb, and L2a, among other subfamilies of retrotransposons were identified at the MM ctDNA insertion sites (FIG. 5B and TABLE 7).
(§4) Whole-genome sequencing and Whole exon sequencing: ctDNA was extracted from 10 MM and 10 PC patients. DNA from CD138 (+) cells and from cell lines used in in vitro experiments (MM1s and MIA) was extracted using Blood & Cell Culture DNA Mini Kit (Quiagen, MD). DNA from […] paraffin embedded pancreatic tumors was obtained using QIAamp DNA FFPE Tissue Kit Print (Qiagen, MD).
(§5) After extraction, ctDNA was ligated to the PACBIO adaptor ([…]) using the ABM DNA Library Prep Kit for Illumina Sequencing (Applied Biological Materials Inc. Canada). PACBio-labeled ctDNA and regular ctDNA were subjected to standard methods for library preparation and sequencing using Illumina and Agilent protocols, respectively. Applied Biological Materials Inc. prepared the libraries and performed whole-exon and -genome sequencing. The average target coverage was 50×.
(§6) Identification of transposable elements and its nucleotide variants: To determine the locations of transposable-like regions in contigs, sequences were analyzed and transposable elements (TEs) were identified and classified using RepeatMasker version 4.1.0 and the Dfam database (release 3.1) of repetitive DNA families was used as a reference for identifying repeats in ctDNA contig sequences that were part of qualifying structural events. For each repeat sequence identified by RepeatMasker, the overall frequency of the specific repeat (e.g., for AluSp or L1) and their parent class (e.g., SINE) was computed.
Once the TE elements were identified, hit repeats/TE sequences, unique contigs for all samples, and insertion sequence were aligned with MAFFT software version. […]

[2] = test system: MIA (pancreatic cancer) cell genome; assay: ctDNA coculture with MIA cells, whole genome sequencing: genomic insertion sites, transposons at insertion points and SNVs (pancreatic cancer); assay type: cell-based, human; conditions: TABLE 8, pancreatic cancer co-culture
Method: as §1
The sequence data was used to reconstruct genomic contigs for each experimental condition by de novo assembly. […] Coculture contigs carrying a ctDNA insertion were identified using NucDiff analysis.
as §2, §3, §4
as §5, with “sequencing.” for “sequencing. The average target coverage was 50×.”
as §6
Once the TE elements were identified, hit repeats/TE sequences, unique contigs for all samples, and insertion sequence were aligned with MAFFT software version. Mutations in TE sequences were identified by comparison of nucleotides at each position in the multiple sequence alignment with the “Biostrings” R package (version 4.1). A position was considered to contain mutation if the substitution was present in contigs of all samples.

| Molecule | Gene [1] | Location [1] | No. SNP [1] | Chr position [1] | other results |
| --- | --- | --- | --- | --- | --- |
| L1MB3 |  |  |  |  | blast orientation ([1]; TABLE 7, multiple myeloma co-culture, BLAST alignment orientation): Plus/Plus; blast chr ([1]; TABLE 7, multiple myeloma co-culture, chromosome with the longest result for BLAST analysis of the full contig): chr2; Distance from insertion ([1]; TABLE 7, multiple myeloma co-culture, distance between insertion and the transposon (0 if they overlap)): −68; Location relative to insertion ([1]; TABLE 7, multiple myeloma co-culture, location of the transposon relative to the insertion on the contig): right |
| B1 | none | Chr14/ and Chr3 | 4 |  |  |
| B2 | AK311573 | Chr21 | 24 | 10752909 |  |
| B3 | TBL1XR1 | Chr3 | 1 | 176878250 |  |
| B4 |  |  |  |  | blast orientation ([2]; BLAST alignment orientation): Plus/Plus; blast chr ([2]; chromosome with the longest result for BLAST analysis of the full contig): chr21; Transposon orientation ([2]; compared with the human reference genome): direct; Distance from insertion ([2]; distance between insertion and the transposon (0 if they overlap)): 0; Location relative to insertion ([2]; location of the transposon relative to the insertion on the contig): intersect |
| B5 | PI4K2B | Chr4 | 2 |  |  |
| B6 | TBL1XR1 | Chr3 | 1 | 176878250 |  |
